Experimental data published in publication PMC6450878.

Columns and labels:
[1] = molecular target: eGFP-talin1 (human talin1) (UniProt Q9Y490); assay: OPTIC assay (microscopy of GFP-talin1 recruitment to clustered CEACAM3-integrin fusion proteins in 293T cells); details: 293 T cells co-transfected with CEACAM3-integrin fusion constructs and GFP-talin1, infected for 1 h with Pacific Blue-labeled Ngo, read off a plot
[2] = molecular target: CEACAM3-integrin β1 fusion construct (CEA3-ITGB1) (human) (UniProt P05556); assay: OPTIC (Opa protein triggered integrin clustering; recruitment of a fluorescent protein to the clustered chimeric receptor, confocal microscopy); 293T cells co-transfected with CEA3-ΔCT or a CEA3-ITGB chimera and the protein of interest fused to eGFP or mCherry, seeded on poly-L-lysine; infected 1 h with Pacific Blue-stained Opa52-expressing N. gonorrhoeae at MOI 20; fixed, stained for CEACAM3; R = maximum fluorescence at the clustered chimera / mean fluorescence of the cell; R > 2 defined as positive recruitment; n = 60 cells
[3] = molecular target: CEACAM3-integrin β3 fusion construct (CEA3-ITGB3) (human) (UniProt P05106); assay: as above
[4] = molecular target: CEA3-ITGB1 C.ow (CEACAM3 fused to the cytoplasmic domain of Capsaspora owczarzaki integrin β homologue ITGB1 C.ow) (human | Capsaspora owczarzaki); assay: as above
[5] = molecular target: CEA3-ITGB2 C.ow (CEACAM3 fused to the cytoplasmic domain of Capsaspora owczarzaki integrin β homologue ITGB2 C.ow) (human | Capsaspora owczarzaki); assay: as above
[6] = molecular target: CEACAM3-integrin β2 fusion construct (CEA3-ITGB2) (human) (UniProt P05107); assay: as above
[7] = molecular target: CEACAM3-integrin β5 fusion construct (CEA3-ITGB5) (human) (UniProt P18084); assay: as above
CEA3-ITGB1 Y783A (human) = CEA3-ITGB1 Y783A (human) (UniProt P05556); assay: as above

Sequence of UniProt Q9Y490 (Q9Y490 whole entry, looked up, the tested form may be a part): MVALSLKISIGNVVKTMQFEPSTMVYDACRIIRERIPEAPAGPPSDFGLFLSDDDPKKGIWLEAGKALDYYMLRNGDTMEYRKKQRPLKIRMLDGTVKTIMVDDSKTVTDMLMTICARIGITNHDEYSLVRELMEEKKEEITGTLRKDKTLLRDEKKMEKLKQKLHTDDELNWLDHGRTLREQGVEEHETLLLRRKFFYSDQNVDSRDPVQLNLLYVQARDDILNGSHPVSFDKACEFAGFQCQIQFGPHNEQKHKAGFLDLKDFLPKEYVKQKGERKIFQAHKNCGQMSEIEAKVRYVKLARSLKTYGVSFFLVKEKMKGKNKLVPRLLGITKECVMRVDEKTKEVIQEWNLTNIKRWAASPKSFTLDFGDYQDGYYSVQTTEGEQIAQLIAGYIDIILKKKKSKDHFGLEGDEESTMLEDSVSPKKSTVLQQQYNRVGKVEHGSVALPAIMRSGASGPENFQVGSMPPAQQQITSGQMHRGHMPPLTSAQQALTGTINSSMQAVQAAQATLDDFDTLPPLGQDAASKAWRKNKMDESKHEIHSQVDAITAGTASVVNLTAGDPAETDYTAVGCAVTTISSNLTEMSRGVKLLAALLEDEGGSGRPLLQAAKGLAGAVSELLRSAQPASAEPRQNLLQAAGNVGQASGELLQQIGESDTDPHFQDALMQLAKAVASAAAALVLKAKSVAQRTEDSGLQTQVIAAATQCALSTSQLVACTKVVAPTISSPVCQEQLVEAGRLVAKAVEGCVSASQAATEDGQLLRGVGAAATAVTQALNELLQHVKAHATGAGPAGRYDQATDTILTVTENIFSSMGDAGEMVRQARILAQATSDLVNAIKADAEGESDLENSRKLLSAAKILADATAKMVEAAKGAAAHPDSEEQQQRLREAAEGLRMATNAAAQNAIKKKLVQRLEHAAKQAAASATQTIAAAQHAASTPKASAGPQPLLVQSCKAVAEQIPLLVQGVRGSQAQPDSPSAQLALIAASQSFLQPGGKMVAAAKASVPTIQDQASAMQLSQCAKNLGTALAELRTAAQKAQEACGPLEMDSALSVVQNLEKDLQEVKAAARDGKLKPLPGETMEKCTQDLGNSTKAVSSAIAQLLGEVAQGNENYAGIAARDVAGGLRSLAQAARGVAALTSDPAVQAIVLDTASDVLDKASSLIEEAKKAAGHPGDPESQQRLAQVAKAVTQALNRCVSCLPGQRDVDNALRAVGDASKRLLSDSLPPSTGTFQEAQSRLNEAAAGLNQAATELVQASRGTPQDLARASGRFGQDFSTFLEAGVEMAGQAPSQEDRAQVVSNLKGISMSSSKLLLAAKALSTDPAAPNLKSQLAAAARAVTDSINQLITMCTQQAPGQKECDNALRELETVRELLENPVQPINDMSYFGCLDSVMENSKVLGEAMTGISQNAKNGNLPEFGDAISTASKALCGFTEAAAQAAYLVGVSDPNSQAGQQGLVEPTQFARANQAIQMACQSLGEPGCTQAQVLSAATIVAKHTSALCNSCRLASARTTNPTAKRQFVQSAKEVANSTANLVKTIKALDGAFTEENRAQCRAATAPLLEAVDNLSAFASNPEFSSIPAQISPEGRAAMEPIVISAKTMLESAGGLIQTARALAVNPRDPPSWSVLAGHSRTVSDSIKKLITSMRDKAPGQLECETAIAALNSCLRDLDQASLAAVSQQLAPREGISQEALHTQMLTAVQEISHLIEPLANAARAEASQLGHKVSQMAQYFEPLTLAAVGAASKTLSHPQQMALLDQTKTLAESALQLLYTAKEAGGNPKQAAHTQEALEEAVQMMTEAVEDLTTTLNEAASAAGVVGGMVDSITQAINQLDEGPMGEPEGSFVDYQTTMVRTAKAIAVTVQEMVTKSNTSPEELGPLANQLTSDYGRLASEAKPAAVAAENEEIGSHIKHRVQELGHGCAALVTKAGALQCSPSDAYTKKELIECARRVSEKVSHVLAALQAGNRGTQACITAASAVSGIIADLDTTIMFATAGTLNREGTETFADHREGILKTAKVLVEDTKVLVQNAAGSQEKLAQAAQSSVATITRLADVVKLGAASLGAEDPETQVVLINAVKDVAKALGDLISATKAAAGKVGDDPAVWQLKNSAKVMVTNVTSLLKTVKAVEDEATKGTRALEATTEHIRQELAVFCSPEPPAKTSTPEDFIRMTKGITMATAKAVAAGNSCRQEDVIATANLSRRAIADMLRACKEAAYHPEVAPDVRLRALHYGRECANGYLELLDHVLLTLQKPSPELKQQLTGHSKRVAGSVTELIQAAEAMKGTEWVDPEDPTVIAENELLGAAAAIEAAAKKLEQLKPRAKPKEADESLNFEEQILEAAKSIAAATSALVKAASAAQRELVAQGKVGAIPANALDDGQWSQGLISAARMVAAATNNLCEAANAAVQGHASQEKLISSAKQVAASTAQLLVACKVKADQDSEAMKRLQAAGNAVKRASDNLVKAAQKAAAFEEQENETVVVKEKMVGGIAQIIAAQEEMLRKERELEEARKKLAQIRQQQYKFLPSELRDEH

| Substance | recruitment ratio R (mean) [2] | recruitment ratio R (mean) [3] | percent of cells with R >= 2 [2] [%] | other results |
| --- | --- | --- | --- | --- |
| CEA3-ITGB2 C.ow (CEACAM3 fused to the cytoplasmic domain of Capsaspora owczarzaki integrin β homologue ITGB2 C.ow) F1038A | – | – | – | other: talin recruitment ratio R ([1]; n = 60 cells from three …, parent: est. 2.6): 2.2; other: percentage of cells with talin recruitment R ≥ 2 ([1]; parent: est. 64): 59% |
| eGFP-tagged human kindlin-2 (from UniProt Q96AC1 1-680) (natural protein) | 3.9 | 2.4 | – | – |
| eGFP-tagged paxillin (from UniProt P49023 1-591) (natural protein) | 2.92 | 2.57 | – | – |
| eGFP-talin1 (human talin1) (from UniProt Q9Y490 1-2541) (natural protein) | 3.41 | 3.78 | 85 | recruitment ratio R [4]: > 2; recruitment ratio R [5]: > 2; percent of cells with R >= 2 [6]: 85%; percent of cells with R >= 2 [3]: 85%; percent of cells with R >= 2 [7]: 62%; recruitment ratio R (mean) [7]: 2.1 |
| mCherry | 1.5 | – | – | – |
| mCherry-talin1 (human talin1) (from UniProt Q9Y490 1-2541) (natural protein) | 2.84 | – | 85 | percent of cells with R >= 2 (CEA3-ITGB1 Y783A (human)): 17%; recruitment ratio R (mean) (CEA3-ITGB1 Y783A (human)): 1.8 |
